{"source": "patent US20210032329A1", "about": "(VACCINEX, published 2021)", "key": {"[1]": {"target": "T1, marmoset SEMA4D-His (marmoset, UniProt A0A8I3W811 22-734)", "T1 construct": "also called CD100-His; not shown: His tag", "T1 sequence": "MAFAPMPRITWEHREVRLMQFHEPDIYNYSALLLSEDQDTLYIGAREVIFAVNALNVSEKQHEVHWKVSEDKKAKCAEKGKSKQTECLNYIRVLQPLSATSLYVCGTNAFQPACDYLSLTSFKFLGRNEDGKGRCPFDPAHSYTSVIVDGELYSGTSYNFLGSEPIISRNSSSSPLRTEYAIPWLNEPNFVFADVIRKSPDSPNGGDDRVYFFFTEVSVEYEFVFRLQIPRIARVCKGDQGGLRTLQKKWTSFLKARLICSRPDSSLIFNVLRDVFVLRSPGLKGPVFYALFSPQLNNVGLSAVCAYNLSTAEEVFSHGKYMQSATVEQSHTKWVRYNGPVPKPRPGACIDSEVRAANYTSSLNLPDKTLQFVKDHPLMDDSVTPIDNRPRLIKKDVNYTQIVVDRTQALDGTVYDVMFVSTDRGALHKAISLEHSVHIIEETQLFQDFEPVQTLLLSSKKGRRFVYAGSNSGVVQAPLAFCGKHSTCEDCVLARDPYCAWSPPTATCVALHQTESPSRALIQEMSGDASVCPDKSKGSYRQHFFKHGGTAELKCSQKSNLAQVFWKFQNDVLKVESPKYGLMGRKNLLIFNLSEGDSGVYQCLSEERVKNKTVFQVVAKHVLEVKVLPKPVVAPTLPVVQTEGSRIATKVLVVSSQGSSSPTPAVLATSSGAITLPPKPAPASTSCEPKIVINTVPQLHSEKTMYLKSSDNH", "assay": "BIACORE; antibody captured with goat anti-human IgG Fc, marmoset SEMA4D-His as analyte", "experimental": "The binding characteristics of MAb D2517 were determined by BIACORE assay, as follows."}, "[2]": {"target": "T2, human SEMA4D-His (human, UniProt Q92854 22-734, limits assumed)", "T2 construct": "also called CD100-His; not shown: His tag, detected with anti-6xHis-APC", "T2 sequence (looked up)": "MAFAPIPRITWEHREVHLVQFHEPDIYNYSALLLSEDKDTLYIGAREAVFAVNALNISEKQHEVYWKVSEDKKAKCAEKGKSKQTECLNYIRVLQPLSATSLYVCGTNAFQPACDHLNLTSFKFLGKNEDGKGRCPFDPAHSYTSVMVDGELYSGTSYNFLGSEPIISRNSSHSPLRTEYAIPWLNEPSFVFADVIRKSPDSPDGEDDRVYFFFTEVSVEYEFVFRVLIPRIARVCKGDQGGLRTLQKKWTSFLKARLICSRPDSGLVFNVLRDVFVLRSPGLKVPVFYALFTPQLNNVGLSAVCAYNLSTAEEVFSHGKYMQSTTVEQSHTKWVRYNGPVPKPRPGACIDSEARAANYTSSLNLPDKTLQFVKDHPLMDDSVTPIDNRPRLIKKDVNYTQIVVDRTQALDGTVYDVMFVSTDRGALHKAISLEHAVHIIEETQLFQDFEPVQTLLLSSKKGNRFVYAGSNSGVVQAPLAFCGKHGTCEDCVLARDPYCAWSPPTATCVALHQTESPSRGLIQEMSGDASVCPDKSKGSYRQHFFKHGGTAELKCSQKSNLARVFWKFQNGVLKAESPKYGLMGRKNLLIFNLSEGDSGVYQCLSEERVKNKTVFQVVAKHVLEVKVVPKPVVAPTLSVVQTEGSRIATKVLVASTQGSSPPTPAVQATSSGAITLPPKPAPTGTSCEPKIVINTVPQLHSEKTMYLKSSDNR", "assay": "receptor blocking; antibody dilution series pre-incubated with SEMA4D-His, binding to 293PLXNB1 cells (Plexin B1) read by flow cytometry", "experimental": "(§1) After washing, the cells were stained with anti-6xHis-APC (30 min, 4° C.), washed and analyzed by flow cytometry on FACS Canto II."}, "[3]": {"target": "T3, cynomolgus monkey SEMA4D-His (cynomolgus monkey)", "T3 construct": "also called Cyno SEMA4D", "assay": "receptor blocking; antibody dilution series pre-incubated with SEMA4D-His, binding to 293PLXNB1 cells (Plexin B1) read by flow cytometry", "experimental": "as §1"}, "[4]": {"target": "T4, mouse SEMA4D-His (mouse, UniProt O09126 24-733, limits assumed)", "T4 construct": "not shown: His tag, detected with anti-6xHis-APC", "T4 sequence (looked up)": "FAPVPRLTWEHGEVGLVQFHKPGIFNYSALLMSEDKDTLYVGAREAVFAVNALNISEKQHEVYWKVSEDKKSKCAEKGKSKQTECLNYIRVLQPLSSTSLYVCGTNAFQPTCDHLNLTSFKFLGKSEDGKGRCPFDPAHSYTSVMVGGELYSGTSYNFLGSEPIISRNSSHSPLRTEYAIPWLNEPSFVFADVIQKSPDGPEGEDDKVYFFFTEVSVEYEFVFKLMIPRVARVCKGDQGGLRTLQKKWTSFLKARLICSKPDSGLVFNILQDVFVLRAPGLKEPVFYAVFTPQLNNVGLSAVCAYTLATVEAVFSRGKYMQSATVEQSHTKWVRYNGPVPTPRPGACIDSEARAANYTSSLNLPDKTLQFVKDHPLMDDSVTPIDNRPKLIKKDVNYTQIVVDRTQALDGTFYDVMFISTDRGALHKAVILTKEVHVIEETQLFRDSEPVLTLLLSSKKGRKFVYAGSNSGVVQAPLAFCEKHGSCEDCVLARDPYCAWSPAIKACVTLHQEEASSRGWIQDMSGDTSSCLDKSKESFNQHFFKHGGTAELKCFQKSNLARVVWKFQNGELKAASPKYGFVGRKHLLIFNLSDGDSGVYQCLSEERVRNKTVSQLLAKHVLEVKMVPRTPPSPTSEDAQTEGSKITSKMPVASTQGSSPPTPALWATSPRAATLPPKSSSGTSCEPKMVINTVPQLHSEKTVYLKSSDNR", "assay": "receptor blocking; antibody dilution series pre-incubated with SEMA4D-His, binding to 293PLXNB1 cells (Plexin B1) read by flow cytometry", "experimental": "as §1"}, "[5]": {"target": "T5, rat SEMA4D-His (rat, UniProt A0A8I6G5Q1 23-734)", "T5 construct": "not shown: His tag, detected with anti-6xHis-APC", "assay": "receptor blocking; antibody dilution series pre-incubated with SEMA4D-His, binding to 293PLXNB1 cells (Plexin B1) read by flow cytometry", "experimental": "as §1"}}}
{"binder": "MAb D2517 (antibody, V domains shown) VH: EVQLVESGGGLVQPGGSLRLSCAASGFIFSDYWMVWVRQAPGKGLEYVAHMNQDGGARYYAESVRGRFTISRDNAKNSLYLQMNSLRAEDTAVYYCARDPWGYDSWGQGTLVT VL: not shown", "values": [{"measurement": "Ka", "setting": "[1]", "result": "2.47e+08", "unit": "M⁻¹"}, {"measurement": "Kd", "setting": "[1]", "result": 4, "unit": "nM"}, {"measurement": "koff", "setting": "[1]", "result": 0.0032, "unit": "s⁻¹"}, {"measurement": "kon", "setting": "[1]", "result": 789000, "unit": "M⁻¹ s⁻¹"}, {"measurement": "EC50", "setting": "[2]", "result": 1, "unit": "nM"}, {"measurement": "EC50", "setting": "[3]", "result": 1.2, "unit": "nM"}, {"measurement": "EC50", "setting": "[4]", "result": 1.2, "unit": "nM"}, {"measurement": "EC50", "setting": "[5]", "result": 1.5, "unit": "nM"}]}
